Where no end group is shown, it is not given here.
Experiment: First-order nonenzymatic deamidation of pentapeptides in Tris buffer
Assay type: physicochemical
Conditions: pH 7.4, 37.0° C., 0.15 M Tris HCl; Asn pentapeptides
Method: One of the discoveries made was that the sequence dependence of deamidation is much richer and covers a wider range than previously thought. In 37° C., pH 7.4, 0.15 M Tris buffer, the combination of XxxAsnYyy and XxxGlnYyy sequences where Xxx and Yyy are any of the naturally occuring amino acids covers a range from less than 1 day to over 15,000 days with the entire range in between available.
It is based on pentapeptide rates measure in 37° C., pH 7.4, 0.15 M Tris buffer. The applicability of a pentapeptide model to sequence dependence was verified in a separate set of experiments. All values listed in this table are experimental except for the four values in boxes, which were estimated from the rest of the data.
It is also based on pentapeptide rates measure in 37° C., pH 7.4, 0.15 M Tris buffer. In this case, the 52 values shown in bold were measured, and the rest of the values were derived from surface fitting.
Deamidation rates are affected by a wide variety of parameters, including, pH, Temperature, Ionic Strength, and Buffer Ions. These rates are measured under pH and Temperature conditions that are applicable to biological systems. The buffer type and concentration were chosen to minimize ion affects to the extent possible given the experimental limitations. Modification of these conditions will change the rates in Tables 1 and 2. As long as the conditions are not taken to extremes (i.e. high temperature, or strongly acidic or basic conditions) the qualitative sequence dependence should remain the same and the rates reported here can be used with necessary adjustments.

Question: Which “First-Order Deamidation Halftimes of GlyXxxAsnYyyGly” value does the source give for “GlyAlaAsnAlaGly (GANAG; printed: GlyAlaAsnAlaGly)” here?
Answer: Its value is 22.5 days.

Question: Which “First-Order Deamidation Halftimes of GlyXxxAsnYyyGly” value does the source give for GlyAlaAsnAmCysGly here?
Answer: The value was 40.6 days.

Question: Which “First-Order Deamidation Halftimes of GlyXxxAsnYyyGly” value does the source give for “GlyAlaAsnArgGly (GANRG; printed: GlyAlaAsnArgGly)” here?
Answer: Its value is 62.4 days.

Question: Which “First-Order Deamidation Halftimes of GlyXxxAsnYyyGly” value does the source give for “GlyAlaAsnAspGly (GANDG; printed: GlyAlaAsnAspGly)” here?
Answer: The value was 31.9 days.

Question: Which “First-Order Deamidation Halftimes of GlyXxxAsnYyyGly” value does the source give for “GlyAlaAsnCysGly (GANCG; printed: GlyAlaAsnCysGly)” here?
Answer: The value was 63.7 days.

Question: For “GlyAlaAsnGluGly (GANEG; printed: GlyAlaAsnGluGly)”, which “First-Order Deamidation Halftimes of GlyXxxAsnYyyGly” value is on record?
Answer: The value was 74.1 days.

Question: With “GlyAlaAsnGlyGly (GANGG; printed: GlyAlaAsnGlyGly)” as the substance, how does the “First-Order Deamidation Halftimes of GlyXxxAsnYyyGly” value read?
Answer: The value was 1.05 days.

Question: Which “First-Order Deamidation Halftimes of GlyXxxAsnYyyGly” value does the source give for “GlyAlaAsnHisGly (GANHG; printed: GlyAlaAsnHisGly)” here?
Answer: The value was 9.3 days.

Question: With “GlyAlaAsnIleGly (GANIG; printed: GlyAlaAsnIleGly)” as the substance, how does the “First-Order Deamidation Halftimes of GlyXxxAsnYyyGly” value read?
Answer: The value was 300 days.

Question: With “GlyAlaAsnLeuGly (GANLG; printed: GlyAlaAsnLeuGly)” as the substance, how does the “First-Order Deamidation Halftimes of GlyXxxAsnYyyGly” value read?
Answer: Its value is 124 days.

Question: Which “First-Order Deamidation Halftimes of GlyXxxAsnYyyGly” value does the source give for “GlyAlaAsnLysGly (GANKG; printed: GlyAlaAsnLysGly)” here?
Answer: Its value is 55.9 days.

Question: With “GlyAlaAsnMetGly (GANMG; printed: GlyAlaAsnMetGly)” as the substance, how does the “First-Order Deamidation Halftimes of GlyXxxAsnYyyGly” value read?
Answer: Its value is 59.2 days.

Question: For “GlyAlaAsnPheGly (GANFG; printed: GlyAlaAsnPheGly)”, which “First-Order Deamidation Halftimes of GlyXxxAsnYyyGly” value is on record?
Answer: Its value is 65.6 days.

Question: For “GlyAlaAsnProGly (GANPG; printed: GlyAlaAsnProGly)”, which “First-Order Deamidation Halftimes of GlyXxxAsnYyyGly” value is on record?
Answer: Its value is 7370 days.

Question: Which “First-Order Deamidation Halftimes of GlyXxxAsnYyyGly” value does the source give for “GlyAlaAsnSerGly (GANSG; printed: GlyAlaAsnSerGly)” here?
Answer: The value was 14.9 days.

Question: Which “First-Order Deamidation Halftimes of GlyXxxAsnYyyGly” value does the source give for “GlyAlaAsnThrGly (GANTG; printed: GlyAlaAsnThrGly)” here?
Answer: The value was 43.5 days.

Question: With “GlyAlaAsnTrpGly (GANWG; printed: GlyAlaAsnTrpGly)” as the substance, how does the “First-Order Deamidation Halftimes of GlyXxxAsnYyyGly” value read?
Answer: The value was 130 days.

Question: Which “First-Order Deamidation Halftimes of GlyXxxAsnYyyGly” value does the source give for “GlyAlaAsnTyrGly (GANYG; printed: GlyAlaAsnTyrGly)” here?
Answer: Its value is 73.9 days.

Question: For “GlyAlaAsnValGly (GANVG; printed: GlyAlaAsnValGly)”, which “First-Order Deamidation Halftimes of GlyXxxAsnYyyGly” value is on record?
Answer: The value was 254 days.

Question: For “GlyAmCysAsnAlaGly (CNAG; not fully specified (N-terminus); printed as GlyAmCysAsnAlaGly)”, which “First-Order Deamidation Halftimes of GlyXxxAsnYyyGly” value is on record?
Answer: The value was 21.5 days.

Question: Which “First-Order Deamidation Halftimes of GlyXxxAsnYyyGly” value does the source give for GlyAmCysAsnAmCysGly here?
Answer: The value was 39.3 days.

Question: With “GlyAmCysAsnArgGly (CNRG; not fully specified (N-terminus); printed as GlyAmCysAsnArgGly)” as the substance, how does the “First-Order Deamidation Halftimes of GlyXxxAsnYyyGly” value read?
Answer: The value was 58.8 days.

Question: For “GlyAmCysAsnAspGly (CNDG; not fully specified (N-terminus); printed as GlyAmCysAsnAspGly)”, which “First-Order Deamidation Halftimes of GlyXxxAsnYyyGly” value is on record?
Answer: Its value is 32.9 days.

Question: With “GlyAmCysAsnGluGly (CNEG; not fully specified (N-terminus); printed as GlyAmCysAsnGluGly)” as the substance, how does the “First-Order Deamidation Halftimes of GlyXxxAsnYyyGly” value read?
Answer: Its value is 45 days.

Question: For “GlyAmCysAsnGlyGly (CNGG; not fully specified (N-terminus); printed as GlyAmCysAsnGlyGly)”, which “First-Order Deamidation Halftimes of GlyXxxAsnYyyGly” value is on record?
Answer: The value was 1.14 days.

Question: For “GlyAmCysAsnHisGly (CNHG; not fully specified (N-terminus); printed as GlyAmCysAsnHisGly)”, which “First-Order Deamidation Halftimes of GlyXxxAsnYyyGly” value is on record?
Answer: Its value is 10.9 days.

Question: With “GlyAmCysAsnIleGly (CNIG; not fully specified (N-terminus); printed as GlyAmCysAsnIleGly)” as the substance, how does the “First-Order Deamidation Halftimes of GlyXxxAsnYyyGly” value read?
Answer: The value was 250 days.

Question: For “GlyAmCysAsnLeuGly (CNLG; not fully specified (N-terminus); printed as GlyAmCysAsnLeuGly)”, which “First-Order Deamidation Halftimes of GlyXxxAsnYyyGly” value is on record?
Answer: The value was 100 days.

Question: With “GlyAmCysAsnLysGly (CNKG; not fully specified (N-terminus); printed as GlyAmCysAsnLysGly)” as the substance, how does the “First-Order Deamidation Halftimes of GlyXxxAsnYyyGly” value read?
Answer: Its value is 48.9 days.

Question: With “GlyAmCysAsnMetGly (CNMG; not fully specified (N-terminus); printed as GlyAmCysAsnMetGly)” as the substance, how does the “First-Order Deamidation Halftimes of GlyXxxAsnYyyGly” value read?
Answer: The value was 56.5 days.

Question: With “GlyAmCysAsnPheGly (CNFG; not fully specified (N-terminus); printed as GlyAmCysAsnPheGly)” as the substance, how does the “First-Order Deamidation Halftimes of GlyXxxAsnYyyGly” value read?
Answer: Its value is 63.3 days.

Question: For “GlyAmCysAsnProGly (CNPG; not fully specified (N-terminus); printed as GlyAmCysAsnProGly)”, which “First-Order Deamidation Halftimes of GlyXxxAsnYyyGly” value is on record?
Answer: Its value is 3900 days.

Question: For “GlyAmCysAsnSerGly (CNSG; not fully specified (N-terminus); printed as GlyAmCysAsnSerGly)”, which “First-Order Deamidation Halftimes of GlyXxxAsnYyyGly” value is on record?
Answer: The value was 15.4 days.

Question: Which “First-Order Deamidation Halftimes of GlyXxxAsnYyyGly” value does the source give for “GlyAmCysAsnThrGly (CNTG; not fully specified (N-terminus); printed as GlyAmCysAsnThrGly)” here?
Answer: The value was 41.7 days.

Same assay, conditions: pH 7.4, 37.0 ° C., 0.15 M Tris HCl; Gln pentapeptides; 52 values measured, rest derived from surface fitting

Question: Which “First-Order Deamidation Halftimes of GlyXxxGlnYyyGly” value does the source give for “GlyAlaGlnAlaGly (GAQAG; printed: GlyAlaGlnAlaGly)” here?
Answer: The value was 5300 days.

Question: With “GlyAlaGlnArgGly (GAQRG; printed: GlyAlaGlnArgGly)” as the substance, how does the “First-Order Deamidation Halftimes of GlyXxxGlnYyyGly” value read?
Answer: Its value is 7200 days.

Question: For “GlyAlaGlnAspGly (GAQDG; printed: GlyAlaGlnAspGly)”, which “First-Order Deamidation Halftimes of GlyXxxGlnYyyGly” value is on record?
Answer: The value was 7400 days.

Question: Which “First-Order Deamidation Halftimes of GlyXxxGlnYyyGly” value does the source give for “GlyAlaGlnCysGly (GAQCG; printed: GlyAlaGlnCysGly)” here?
Answer: Its value is 1900 days.

Question: Which “First-Order Deamidation Halftimes of GlyXxxGlnYyyGly” value does the source give for “GlyAlaGlnGluGly (GAQEG; printed: GlyAlaGlnGluGly)” here?
Answer: The value was 7300 days.

Question: With “GlyAlaGlnGlyGly (GAQGG; printed: GlyAlaGlnGlyGly)” as the substance, how does the “First-Order Deamidation Halftimes of GlyXxxGlnYyyGly” value read?
Answer: Its value is 610 days.

Question: For “GlyAlaGlnHisGly (GAQHG; printed: GlyAlaGlnHisGly)”, which “First-Order Deamidation Halftimes of GlyXxxGlnYyyGly” value is on record?
Answer: Its value is 5500 days.

Question: With “GlyAlaGlnIleGly (GAQIG; printed: GlyAlaGlnIleGly)” as the substance, how does the “First-Order Deamidation Halftimes of GlyXxxGlnYyyGly” value read?
Answer: The value was 6200 days.

Question: With “GlyAlaGlnLeuGly (GAQLG; printed: GlyAlaGlnLeuGly)” as the substance, how does the “First-Order Deamidation Halftimes of GlyXxxGlnYyyGly” value read?
Answer: Its value is 6100 days.

Question: With “GlyAlaGlnLysGly (GAQKG; printed: GlyAlaGlnLysGly)” as the substance, how does the “First-Order Deamidation Halftimes of GlyXxxGlnYyyGly” value read?
Answer: Its value is 5700 days.

Question: Which “First-Order Deamidation Halftimes of GlyXxxGlnYyyGly” value does the source give for “GlyAlaGlnMetGly (GAQMG; printed: GlyAlaGlnMetGly)” here?
Answer: Its value is 4400 days.

Question: For “GlyAlaGlnPheGly (GAQFG; printed: GlyAlaGlnPheGly)”, which “First-Order Deamidation Halftimes of GlyXxxGlnYyyGly” value is on record?
Answer: The value was 7500 days.

Question: For “GlyAlaGlnProGly (GAQPG; printed: GlyAlaGlnProGly)”, which “First-Order Deamidation Halftimes of GlyXxxGlnYyyGly” value is on record?
Answer: The value was 9300 days.

Question: With “GlyAlaGlnSerGly (GAQSG; printed: GlyAlaGlnSerGly)” as the substance, how does the “First-Order Deamidation Halftimes of GlyXxxGlnYyyGly” value read?
Answer: The value was 5200 days.

Question: Which “First-Order Deamidation Halftimes of GlyXxxGlnYyyGly” value does the source give for “GlyAlaGlnThrGly (GAQTG; printed: GlyAlaGlnThrGly)” here?
Answer: The value was 5100 days.

Question: With “GlyAlaGlnTrpGly (GAQWG; printed: GlyAlaGlnTrpGly)” as the substance, how does the “First-Order Deamidation Halftimes of GlyXxxGlnYyyGly” value read?
Answer: The value was 14000 days.

Question: With “GlyAlaGlnTyrGly (GAQYG; printed: GlyAlaGlnTyrGly)” as the substance, how does the “First-Order Deamidation Halftimes of GlyXxxGlnYyyGly” value read?
Answer: Its value is 10000 days.

Question: With “GlyAlaGlnValGly (GAQVG; printed: GlyAlaGlnValGly)” as the substance, how does the “First-Order Deamidation Halftimes of GlyXxxGlnYyyGly” value read?
Answer: The value was 6400 days.

Source: patent US20050118674A1, “Engineering of Controlled Deamidation Rates in Peptides, Proteins, and Similar Structures” (priority 2003, published 2005)
